Experimental data taken from article PMC7954794, “Protein context shapes the specificity of SH3 domain-mediated interactions in vivo” (Nature Communications, 2021).

Test system: growth of yeast strains under 51 stress conditions
Assay: Growth assays in 51 stress conditions (Fig. 1E-F, S2D, S5B)
Type: cell-based, Saccharomyces cerevisiae
Design: key to Growth (Fig. S2D) / growth of ABP1 SH3-swapped strains in stress condition: log2 colony size, average of median per strain (growth score)
Conditions: FigS2D
In short: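 Colony sizes at 74 h on 51 stress media (37 °C) were log2 transformed, corrected for plate effects, and averaged across two plates as per-plate medians (growth score). Strains arrayed in 12 replicates with WT border, grown first on YPD for two days at 30 °C.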

B1: SHO1 (protein, UniProt P40073 1-367, looked up)
High osmolarity signaling …: MSISSKIRPTPRKPSRMATDHSFKMKKFYADPFAISSISLAIVSWVIAIGGSISSASTNESFPRFTWWGIVYQFLIICSLMLFYCFDLVDHYRIFITTSIAVAFVYNTNSATNLVYADGPKKAAASAGVILLSIINLIWILYYGGDNASPTNRWIDSFSIKGIRPSPLENSLHRARRRGNRNTTPYQNNVYNDAIRDSGYATQFDGYPQQQPSHTNYVSSTALAGFENTQPNTSEAVNLHLNTLQQRINSASNAKETNDNSNNQTNTNIGNTFDTDFSNGNTETTMGDTLGLYSDIGDDNFIYKAKALYPYDADDDDAYEISFEQNEILQVSDIEGRWWKARRANGETGIIPSNYVQLIDGPEEMHR
growth of ABP1 SH3-swapped strains in stress condition (Bathophenanthroline.0.1uM): 10.8666 | growth of ABP1 SH3-swapped strains in stress condition (Bathophenanthroline.10uM): 10.6802 | growth of ABP1 SH3-swapped strains in stress condition (Bathophenanthroline.1uM): 10.8165 | growth of ABP1 SH3-swapped strains in stress condition (CaCl2.100mM): 10.8196 | growth of ABP1 SH3-swapped strains in stress condition (CaCl2.250mM): 10.7666 | growth of ABP1 SH3-swapped strains in stress condition (CaCl2.500mM): 10.33 | growth of ABP1 SH3-swapped strains in stress condition (Caffein.10mM): 9.975 | growth of ABP1 SH3-swapped strains in stress condition (Caffein.2mM): 10.938 | growth of ABP1 SH3-swapped strains in stress condition (CdCl2.100uM): 9.34 | growth of ABP1 SH3-swapped strains in stress condition (CdCl2.10uM): 10.884 | growth of ABP1 SH3-swapped strains in stress condition (CdCl2.50uM): 9.827 | growth of ABP1 SH3-swapped strains in stress condition (CuSO4.1mM): 10.4931 | growth of ABP1 SH3-swapped strains in stress condition (CuSO4.5mM): 7.806 | growth of ABP1 SH3-swapped strains in stress condition (Cycloheximide.0.05.uM): 11.0905 | growth of ABP1 SH3-swapped strains in stress condition (Cycloheximide.0.2.uM): 10.7035 | growth of ABP1 SH3-swapped strains in stress condition (Cycloheximide.0.5.uM): 10.0394 | growth of ABP1 SH3-swapped strains in stress condition (DMSO.2.): 11.0205 | growth of ABP1 SH3-swapped strains in stress condition (DMSO.6.): 9.808 | growth of ABP1 SH3-swapped strains in stress condition (DMSO.8.): 8.962 | growth of ABP1 SH3-swapped strains in stress condition (Ethanol.2.): 10.7684 | growth of ABP1 SH3-swapped strains in stress condition (Ethanol.6.): 10.4049 | growth of ABP1 SH3-swapped strains in stress condition (Ethanol.8.): 10.2263 | growth of ABP1 SH3-swapped strains in stress condition (Galactose.2.): 10.8154 | growth of ABP1 SH3-swapped strains in stress condition (Glycerol.2.): 9.771 | growth of ABP1 SH3-swapped strains in stress condition (Hydroxyurea.25mM): 10.7838 | growth of ABP1 SH3-swapped strains in stress condition (Hygromycin.190uM): 10.9371 | growth of ABP1 SH3-swapped strains in stress condition (Hygromycin.19uM): 10.9563 | growth of ABP1 SH3-swapped strains in stress condition (Hygromycin.95uM): 10.9936 | growth of ABP1 SH3-swapped strains in stress condition (MMS.0.004.): 10.9851 | growth of ABP1 SH3-swapped strains in stress condition (MMS.0.02.): 10.7181 | growth of ABP1 SH3-swapped strains in stress condition (MMS.0.04.): 10.0309 | growth of ABP1 SH3-swapped strains in stress condition (Menadione.100uM): 10.5941 | growth of ABP1 SH3-swapped strains in stress condition (Menadione.200uM): 10.4073 | growth of ABP1 SH3-swapped strains in stress condition (Menadione.50uM): 10.7963 | growth of ABP1 SH3-swapped strains in stress condition (NaCl.0.25M): 10.8224 | growth of ABP1 SH3-swapped strains in stress condition (NaCl.1M): 9.702 | growth of ABP1 SH3-swapped strains in stress condition (Nitroquinoline.10uM): 10.7342 | growth of ABP1 SH3-swapped strains in stress condition (Nitroquinoline.50uM): 10.7229 | growth of ABP1 SH3-swapped strains in stress condition (Nystatin.0.01uM): 11.0733 | growth of ABP1 SH3-swapped strains in stress condition (Nystatin.0.1uM): 11.0089 | growth of ABP1 SH3-swapped strains in stress condition (Raffinose.2.): 11.0381 | growth of ABP1 SH3-swapped strains in stress condition (Rapamycin.10nM): 9.786 | growth of ABP1 SH3-swapped strains in stress condition (Rapamycin.50nM): 9.424 | growth of ABP1 SH3-swapped strains in stress condition (SC.pH3): 10.389 | growth of ABP1 SH3-swapped strains in stress condition (SC.pH6): 11.0143 | growth of ABP1 SH3-swapped strains in stress condition (SDS.0.01.): 10.9726 | growth of ABP1 SH3-swapped strains in stress condition (SDS.0.02.): 10.9605 | growth of ABP1 SH3-swapped strains in stress condition (SDS.0.05.): 10.8495 | growth of ABP1 SH3-swapped strains in stress condition (Sorbitol.10mM): 10.9902 | growth of ABP1 SH3-swapped strains in stress condition (Sorbitol.1mM): 11.0334 | growth of ABP1 SH3-swapped strains in stress condition (Sorbitol.5mM): 10.9353
